{"source": "paper PMC4733626", "target": "wild-type metallo-β-lactamase L1 (UniProt P52700)", "test": "SEC", "data": [{"substance": "spin-labeled T163C/K286C mutant of metallo-β-lactamase L1 (enzyme)", "values": [{"measurement": "stoichiometry N", "result": 4}]}]}
